The term Kd denotes the free concentration of one partner at which half of the binding sites on the other are occupied at equilibrium, for simple one-to-one binding.

Common to all, as to assay: SPR; biotinylated phosphopeptides immobilised on streptavidin chip (about 25 RU single, 50 RU tandem motifs); soluble recombinant protein injected; 37°C; HBS-EP; equilibrium binding (Table 4; same-day purification not given)
(In SPR one partner is held on a chip, and binding of the other changes the refractive index at the surface.)

The target of assay [1] is CD244 ITSM3 phosphopeptide (human).
Assay [2] addresses CD244 ITSM4 phosphopeptide (human).
In assay [3] the target is CD244 ITSM2 phosphopeptide (human).

Chain of SAP (recombinant full-length human SAP) (O60880 whole entry): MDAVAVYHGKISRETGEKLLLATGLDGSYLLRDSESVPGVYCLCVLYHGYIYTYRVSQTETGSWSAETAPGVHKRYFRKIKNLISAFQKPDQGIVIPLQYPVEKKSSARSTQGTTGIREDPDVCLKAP

Consider “SAP (recombinant full-length human SAP) (from UniProt O60880 1-128) (natural protein)”, for which the Kd turned out to be 0.08 µM in assay [1], 1.9 µM in assay [2] and 0.02 µM in assay [3].

The values are drawn from publication PMC3958483, “Fine Specificity and Molecular Competition in SLAM Family Receptor Signalling” (PLoS ONE, 2014).
